From the Immune Epitope Database (IEDB)
One block for each sequence: values may come before it.

Legend:
HLA-A*02:01 [1] = assay: IEDB peptide-MHC binding, purified MHC/competitive/radioactivity; ≥ and ≤ were set here for values at or beyond the usual limits of such assays; settings: source organism: Homo sapiens
HLA-B*73:01 [2] = assay: IEDB peptide-MHC binding, purified MHC/competitive/fluorescence; filed as Kd, often an IC50 or EC50 that approximates it; ≥ and ≤ were set here for values at or beyond the usual limits of such assays
HLA-B*27:20 = assay: as above
HLA-B*15:42 = assay: as above
HLA-B*45:06 = assay: as above
HLA-B*83:01 = assay: as above
HLA-B*08:01 = assay: as above; settings: source organism: Rickettsia prowazekii str. Madrid E
HLA-A*30:01 = assay: as above; settings: source organism: Rickettsia prowazekii str. Madrid E
HLA-B*15:17 = assay: as above; settings: source organism: Rickettsia prowazekii str. Madrid E
HLA-B*18:01 = assay: IEDB peptide-MHC binding, purified MHC/direct/fluorescence; filed as Kd, often an IC50 or EC50 that approximates it; ≥ and ≤ were set here for values at or beyond the usual limits of such assays; settings: source organism: Rickettsia prowazekii
HLA-A*69:01 = assay: as above
HLA-B*08:03 = assay: as above; settings: source organism: Rickettsia typhi str. Wilmington
HLA-A*31:01 = assay: as above
HLA-A*68:02 = assay: as above; settings: source organism: Rickettsia prowazekii
HLA-B*58:01 = assay: as above
HLA-B*15:09 = assay: as above; settings: source organism: Rickettsia typhi str. Wilmington
HLA-B*73:01 [3] = assay: as above
HLA-C*15:02 = assay: as above
HLA-B*27:05 = assay: as above
HLA-B*57:01 = assay: as above; settings: source organism: Rickettsia prowazekii
HLA-A*03:01 = assay: as above
HLA-B*48:01 = assay: as above
HLA-A*11:01 = assay: as above
HLA-C*06:02 [4] = assay: as above
HLA-A*02:01 [5] = assay: as above
HLA-B*07:02 = assay: as above
HLA-A*01:01 = assay: as above
HLA-B*08:02 = assay: as above; settings: source organism: Rickettsia typhi str. Wilmington
HLA-A*26:01 = assay: as above
HLA-B*15:01 = assay: as above
HLA-B*35:01 = assay: as above; settings: source organism: Yersinia pestis
HLA-B*44:02 = assay: as above; settings: source organism: Yersinia pestis Nepal516
HLA-B*40:01 [6] = assay: as above; settings: source organism: Yersinia pestis Nepal516
HLA-B*15:02 = assay: as above; settings: source organism: Yersinia enterocolitica subsp. enterocolitica 8081
HLA-A*02:19 = assay: as above; settings: source organism: Yersinia enterocolitica subsp. enterocolitica 8081
HLA-B*46:01 = assay: as above; settings: source organism: Yersinia pestis Nepal516
HLA-B*40:01 [7] = assay: IEDB peptide-MHC binding, purified MHC/competitive/fluorescence; filed as Kd, often an IC50 or EC50 that approximates it; ≥ and ≤ were set here for values at or beyond the usual limits of such assays; settings: source organism: Salmonella enterica subsp. enterica serovar Paratyphi B str. SPB7
HLA-B*39:01 = assay: as above; settings: source organism: Salmonella enterica subsp. enterica serovar Paratyphi B str. SPB7
HLA-C*06:02 [8] = assay: as above; settings: source organism: Escherichia coli HS
HLA-C*14:02 = assay: as above; settings: source organism: Escherichia coli HS
HLA-C*08:02 = assay: IEDB peptide-MHC binding, purified MHC/direct/fluorescence; filed as Kd, often an IC50 or EC50 that approximates it; ≥ and ≤ were set here for values at or beyond the usual limits of such assays; settings: source organism: Escherichia coli HS
HLA-B*51:01 = assay: as above; settings: source organism: Escherichia coli O157:H7
[9] = source organism: human gammaherpesvirus 4
[10] = source organism: Rickettsia prowazekii
[11] = source organism: Rickettsia prowazekii str. Madrid E
[12] = source organism: Human herpesvirus 4 strain B95-8
[13] = source organism: Yersinia pestis
[14] = source organism: Yersinia pestis Nepal516
[15] = source organism: Salmonella enterica subsp. enterica serovar Paratyphi B str. SPB7
[16] = source organism: Escherichia coli HS
[17] = source organism: Brucella abortus 2308

IC50 (HLA-A*02:01 [1]): 0.381 µM
Sequence: ILTVILGVL

Sequence: KEWCGNLIV
Kd (HLA-B*73:01 [2]; source organism: Entamoeba histolytica): ≥ 20 µM

Sequence: RRLHRLLLM
Kd (HLA-B*27:20; [9]): ≤ 0.0001 µM
Kd (HLA-B*15:42; [9]): ≥ 5 µM
Kd (HLA-B*45:06; [9]): ≥ 5 µM
Kd (HLA-B*83:01; [9]): ≥ 5 µM

Sequence: RRNRKALWL
Kd (HLA-B*08:01): 3 µM
Kd (HLA-A*30:01): ≥ 20 µM
Kd (HLA-B*15:17): ≥ 20 µM
Kd (HLA-B*18:01): ≥ 20 µM
Kd (HLA-A*69:01; [10]): ≥ 20 µM
Kd (HLA-B*08:03): ≥ 20 µM
Kd (HLA-A*31:01; [10]): ≥ 20 µM
Kd (HLA-A*68:02): ≥ 20 µM
Kd (HLA-B*58:01; [10]): ≥ 20 µM
Kd (HLA-B*15:09): ≥ 20 µM
Kd (HLA-B*73:01 [3]; [10]): 3.37 µM
Kd (HLA-C*15:02; [11]): ≥ 20 µM
Kd (HLA-B*27:05; [10]): 0.0465 µM
Kd (HLA-B*57:01): ≥ 20 µM
Kd (HLA-A*03:01; [10]): ≥ 20 µM
Kd (HLA-B*48:01; [10]): ≥ 20 µM
Kd (HLA-A*11:01; [10]): ≥ 20 µM
Kd (HLA-C*06:02 [4]; [11]): 0.031 µM
Kd (HLA-A*02:01 [5]; [10]): ≥ 20 µM
Kd (HLA-B*07:02; [10]): 6.89 µM
Kd (HLA-A*01:01; [10]): ≥ 20 µM
Kd (HLA-B*08:02): ≥ 20 µM
Kd (HLA-A*26:01; source organism: Rickettsia typhi str. Wilmington): ≥ 20 µM
Kd (HLA-B*15:01; [10]): ≥ 20 µM

Sequence: RRRRRRAAL
Kd (HLA-B*27:20; [12]): ≤ 0.001 µM
Kd (HLA-B*15:42; [12]): ≥ 5 µM
Kd (HLA-B*45:06; [12]): ≥ 5 µM
Kd (HLA-B*83:01; [12]): ≥ 5 µM

Kd (HLA-C*06:02 [4]; source organism: Escherichia coli O157:H7 str. EDL933): 0.051 µM
Sequence: TRYYWDIHL

Sequence: WLWVSSSDM
Kd (HLA-A*69:01; [13]): 0.114 µM
Kd (HLA-A*31:01; [14]): ≥ 20 µM
Kd (HLA-B*58:01; [14]): ≥ 20 µM
Kd (HLA-B*27:05; [13]): ≥ 5 µM
Kd (HLA-B*35:01): 0.0224 µM
Kd (HLA-B*44:02): ≥ 20 µM
Kd (HLA-A*03:01; [14]): ≥ 20 µM
Kd (HLA-B*40:01 [6]): ≥ 20 µM
Kd (HLA-A*11:01; [14]): ≥ 20 µM
Kd (HLA-A*02:01 [5]; [13]): 1 µM
Kd (HLA-B*07:02; [13]): ≥ 5 µM
Kd (HLA-B*15:02): 0.003 µM
Kd (HLA-A*01:01; [14]): ≥ 20 µM
Kd (HLA-A*02:19): 0.012 µM
Kd (HLA-A*26:01; [14]): ≥ 20 µM
Kd (HLA-B*46:01): ≥ 20 µM
Kd (HLA-B*15:01; [13]): 1.37 µM

Sequence: YESSHWLVV
Kd (HLA-B*27:20; [15]): 0.113 µM
Kd (HLA-B*15:42; [15]): ≥ 5 µM
Kd (HLA-B*40:01 [7]): 0.005 µM
Kd (HLA-B*39:01): 0.0372 µM
Kd (HLA-B*45:06; [15]): ≥ 5 µM
Kd (HLA-B*83:01; [15]): ≥ 5 µM

Kd (HLA-B*15:42; [16]): ≥ 5 µM
Kd (HLA-C*06:02 [8]): 0.0684 µM
Kd (HLA-C*14:02): 0.0018 µM
Kd (HLA-B*45:06; [16]): ≥ 5 µM
Kd (HLA-B*83:01; [16]): ≥ 5 µM
Kd (HLA-C*15:02; [16]): ≥ 20 µM
Kd (HLA-C*08:02): ≥ 20 µM
Kd (HLA-B*07:02; source organism: Escherichia coli O157:H7): 0.006 µM
Kd (HLA-B*51:01): ≥ 20 µM
Sequence: YLREHIRAM

Sequence: YRGGGQQHV
Kd (HLA-B*73:01 [2]; source organism: Brucella abortus S19): 3 µM

Sequence: YRSGVPVEK
Kd (HLA-B*73:01 [3]; source organism: Brucella suis 1330): ≥ 20 µM
Kd (HLA-B*27:05; [17]): 0.0619 µM
Kd (HLA-B*48:01; [17]): ≥ 20 µM
